One assay deals with T1, FPR1 (UniProt P21462 1-350, limits assumed).
T1 sequence (looked up): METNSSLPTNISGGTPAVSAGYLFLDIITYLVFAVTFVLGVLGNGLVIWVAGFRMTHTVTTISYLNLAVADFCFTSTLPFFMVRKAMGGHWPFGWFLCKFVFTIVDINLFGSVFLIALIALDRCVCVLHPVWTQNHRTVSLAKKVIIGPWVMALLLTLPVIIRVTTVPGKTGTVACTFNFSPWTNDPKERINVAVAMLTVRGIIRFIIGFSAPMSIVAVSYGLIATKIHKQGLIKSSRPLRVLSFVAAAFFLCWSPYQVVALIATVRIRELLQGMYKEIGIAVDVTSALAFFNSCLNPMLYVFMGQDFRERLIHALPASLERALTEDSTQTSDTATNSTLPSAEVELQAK
Description: cell-based or functional assay.

Assay [1] has as its target T2, formyl peptide receptor 2 (FPR2) (UniProt P25090 1-351, limits assumed).
T2 sequence (looked up): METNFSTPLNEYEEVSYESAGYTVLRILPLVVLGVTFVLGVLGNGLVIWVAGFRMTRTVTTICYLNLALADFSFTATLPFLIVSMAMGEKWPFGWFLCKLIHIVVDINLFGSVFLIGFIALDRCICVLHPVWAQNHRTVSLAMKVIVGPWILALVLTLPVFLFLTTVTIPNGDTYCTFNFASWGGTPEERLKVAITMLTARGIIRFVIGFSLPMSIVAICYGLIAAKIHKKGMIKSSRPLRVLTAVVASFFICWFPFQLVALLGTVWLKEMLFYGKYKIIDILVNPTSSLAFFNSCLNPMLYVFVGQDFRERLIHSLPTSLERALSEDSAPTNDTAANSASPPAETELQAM
Description: cell-based or functional assay.

B1: peptide of SEQ ID NO 27 (peptide)
peptide: PMKYKVM
HELM: PEPTIDE1{[CCCC(=O)[*:2]].P.M.K.Y.K.V.[dM].[am]}$$$$V2.0
SMILES: CCCC(=O)N1CCC[C@H]1C(=O)N[C@@H](CCSC)C(=O)N[C@@H](CCCCN)C(=O)N[C@@H](Cc1ccc(O)cc1)C(=O)N[C@@H](CCCCN)C(=O)N[C@H](C(=O)N[C@H](CCSC)C(N)=O)C(C)C
On to B1, for which the “EC50 for [Ca2+]” value with FPR1 was greater than 10 µM; in assay [1], less than 0.01 µM.

B2: peptide of SEQ ID NO 33 (peptide)
peptide: RWRYKYM
HELM: PEPTIDE1{[ac].R.W.R.Y.K.Y.[dM].[am]}$$$$V2.0
SMILES: CSCC[C@@H](NC(=O)[C@H](Cc1ccc(O)cc1)NC(=O)[C@H](CCCCN)NC(=O)[C@H](Cc1ccc(O)cc1)NC(=O)[C@H](CCCNC(=N)N)NC(=O)[C@H](Cc1c[nH]c2ccccc12)NC(=O)[C@H](CCCNC(=N)N)NC(C)=O)C(N)=O
In the case of B2, the “EC50 for [Ca2+]” value was greater than 10 µM with FPR1 and less than 0.01 µM in assay [1].

B3: peptide of SEQ ID NO 36 (peptide)
peptide: KWKYKYM
HELM: PEPTIDE1{[ac].K.W.K.Y.K.Y.[dM].[am]}$$$$V2.0
SMILES: CSCC[C@@H](NC(=O)[C@H](Cc1ccc(O)cc1)NC(=O)[C@H](CCCCN)NC(=O)[C@H](Cc1ccc(O)cc1)NC(=O)[C@H](CCCCN)NC(=O)[C@H](Cc1c[nH]c2ccccc12)NC(=O)[C@H](CCCCN)NC(C)=O)C(N)=O
As to B3, the “EC50 for [Ca2+]” value was greater than 10 µM in the assay with FPR1 and less than 0.01 µM in assay [1].

B4: peptide of SEQ ID NO 38 (peptide)
peptide: RMRYKYM
HELM: PEPTIDE1{R.M.R.Y.K.Y.[dM].[am]}$$$$V2.0; N-terminus assumed
SMILES: CSCC[C@H](NC(=O)[C@@H](N)CCCNC(=N)N)C(=O)N[C@@H](CCCNC(=N)N)C(=O)N[C@@H](Cc1ccc(O)cc1)C(=O)N[C@@H](CCCCN)C(=O)N[C@@H](Cc1ccc(O)cc1)C(=O)N[C@H](CCSC)C(N)=O
Turning to B4, the “EC50 for [Ca2+]” value with FPR1 is greater than 10 µM; in assay [1] it was less than 0.01 µM.

B5: peptide of SEQ ID NO 41 (peptide)
peptide: MRYKYM
HELM: PEPTIDE1{M.R.Y.K.Y.[dM].[am]}$$$$V2.0; N-terminus assumed
SMILES: CSCC[C@H](N)C(=O)N[C@@H](CCCNC(=N)N)C(=O)N[C@@H](Cc1ccc(O)cc1)C(=O)N[C@@H](CCCCN)C(=O)N[C@@H](Cc1ccc(O)cc1)C(=O)N[C@H](CCSC)C(N)=O
Take B5: the “EC50 for [Ca2+]” value with FPR1 was greater than 10 µM; in assay [1] it was less than 0.01 µM.

B6: peptide of SEQ ID NO 29 (peptide)
peptide: RWRYRVM
HELM: PEPTIDE1{R.W.R.Y.R.V.[dM].[am]}$$$$V2.0; N-terminus assumed
SMILES: CSCC[C@@H](NC(=O)[C@@H](NC(=O)[C@H](CCCNC(=N)N)NC(=O)[C@H](Cc1ccc(O)cc1)NC(=O)[C@H](CCCNC(=N)N)NC(=O)[C@H](Cc1c[nH]c2ccccc12)NC(=O)[C@@H](N)CCCNC(=N)N)C(C)C)C(N)=O
In the case of B6, the “EC50 for [Ca2+]” value with FPR1 is greater than 10 µM; in assay [1] it was less than 0.01 µM.

B7: peptide of SEQ ID NO 37 (peptide)
peptide: HWKYKYM
HELM: PEPTIDE1{[CCCC(=O)[*:2]].H.W.K.Y.K.Y.[dM].[am]}$$$$V2.0
SMILES: CCCC(=O)N[C@@H](Cc1c[nH]cn1)C(=O)N[C@@H](Cc1c[nH]c2ccccc12)C(=O)N[C@@H](CCCCN)C(=O)N[C@@H](Cc1ccc(O)cc1)C(=O)N[C@@H](CCCCN)C(=O)N[C@@H](Cc1ccc(O)cc1)C(=O)N[C@H](CCSC)C(N)=O
Take B7: the “EC50 for [Ca2+]” value is greater than 10 µM in the assay with FPR1 and less than 0.01 µM in assay [1].

B8: peptide of SEQ ID NO 26 (peptide)
peptide: PMKYKVM
HELM: PEPTIDE1{[ac].P.M.K.Y.K.V.[dM].[am]}$$$$V2.0
SMILES: CSCC[C@H](NC(=O)[C@@H]1CCCN1C(C)=O)C(=O)N[C@@H](CCCCN)C(=O)N[C@@H](Cc1ccc(O)cc1)C(=O)N[C@@H](CCCCN)C(=O)N[C@H](C(=O)N[C@H](CCSC)C(N)=O)C(C)C
Regarding B8, the “EC50 for [Ca2+]” value in the assay with FPR1 is greater than 10 µM; in assay [1], less than 0.01 µM.

B9: peptide of SEQ ID NO 3 (peptide)
peptide: WRYKVM
HELM: PEPTIDE1{W.R.Y.K.V.[dM].[am]}$$$$V2.0; N-terminus assumed
SMILES: CSCC[C@@H](NC(=O)[C@@H](NC(=O)[C@H](CCCCN)NC(=O)[C@H](Cc1ccc(O)cc1)NC(=O)[C@H](CCCNC(=N)N)NC(=O)[C@@H](N)Cc1c[nH]c2ccccc12)C(C)C)C(N)=O
Regarding B9, the entries for the “EC50 for [Ca2+]” value (in the assay with FPR1; in assay [1]) were greater than 10 µM and less than 0.01 µM, respectively.

B10: peptide of SEQ ID NO 30 (peptide)
peptide: RMRYRVM
HELM: PEPTIDE1{R.M.R.Y.R.V.[dM].[am]}$$$$V2.0; N-terminus assumed
SMILES: CSCC[C@H](NC(=O)[C@@H](N)CCCNC(=N)N)C(=O)N[C@@H](CCCNC(=N)N)C(=O)N[C@@H](Cc1ccc(O)cc1)C(=O)N[C@@H](CCCNC(=N)N)C(=O)N[C@H](C(=O)N[C@H](CCSC)C(N)=O)C(C)C
With B10, the “EC50 for [Ca2+]” value with FPR1 was greater than 10 µM; in assay [1] it was less than 0.01 µM.

B11: peptide of SEQ ID NO 28 (peptide)
peptide: PMKYKVM
HELM: PEPTIDE1{[CCCCCCCC(=O)[*:2]].P.M.K.Y.K.V.[dM].[am]}$$$$V2.0
SMILES: CCCCCCCC(=O)N1CCC[C@H]1C(=O)N[C@@H](CCSC)C(=O)N[C@@H](CCCCN)C(=O)N[C@@H](Cc1ccc(O)cc1)C(=O)N[C@@H](CCCCN)C(=O)N[C@H](C(=O)N[C@H](CCSC)C(N)=O)C(C)C
As to B11, the “EC50 for [Ca2+]” value with FPR1 is greater than 10 µM; in assay [1], less than 0.01 µM.

B12: peptide of SEQ ID NO 35 (peptide)
peptide: WRYKYM
HELM: PEPTIDE1{W.R.Y.K.Y.[dM].[am]}$$$$V2.0; N-terminus assumed
SMILES: CSCC[C@@H](NC(=O)[C@H](Cc1ccc(O)cc1)NC(=O)[C@H](CCCCN)NC(=O)[C@H](Cc1ccc(O)cc1)NC(=O)[C@H](CCCNC(=N)N)NC(=O)[C@@H](N)Cc1c[nH]c2ccccc12)C(N)=O
With B12, the “EC50 for [Ca2+]” value was greater than 10 µM with FPR1 and less than 0.01 µM in assay [1].

B13: peptide of SEQ ID NO 25 (peptide)
peptide: PMKYKVM
HELM: PEPTIDE1{P.M.K.Y.K.V.[dM].[am]}$$$$V2.0; N-terminus assumed
SMILES: CSCC[C@H](NC(=O)[C@@H]1CCCN1)C(=O)N[C@@H](CCCCN)C(=O)N[C@@H](Cc1ccc(O)cc1)C(=O)N[C@@H](CCCCN)C(=O)N[C@H](C(=O)N[C@H](CCSC)C(N)=O)C(C)C
With B13, the “EC50 for [Ca2+]” value with FPR1 is greater than 10 µM; in assay [1], less than 0.01 µM.

The values are drawn from US20250361268A1, “NOVEL ANTI-INFLAMMATORY PEPTIDE AND USE THEREOF” (NOVACELL TECHNOLOGY INC., priority 2022, published 2025).
